Tested on: MS2 coat protein
Test: apparent KD of MS2 coat protein; designed switch direction (-1 OFF switch, 1 ON switch): -1; higher = weaker reporter binding
Procedure, shortened: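 The apparent KD reported per design is the median over clusters of curve fits to normalised cluster fluorescence. The RNA switches were transcribed on Illumina chips by stalled E. coli RNA polymerase. SNAP-549-labelled MS2 coat protein was titrated from 0.7 or 1.5 nM, doubling up to 3 µM, in Tris-HCl pH 7.5 buffer containing KCl, MgCl2, BSA, DTT, tRNA and Tween-20, with no input, 200 uM small-molecule ligand, or an oligonucleotide input.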

[1] = Eterna round: R95, input ligand: FMN 200 uM
[2] = Eterna round: R95, input ligand: microRNA oligo, concentration not stated
[3] = Eterna round: R95, input ligand: none
[4] = input ligand: microRNA oligo, concentration not stated

Sequence | apparent KD of MS2 coat protein (input ligand: FMN 200 uM) [µM] | apparent KD of MS2 coat protein (input ligand: none) [µM] | apparent KD of MS2 coat protein [1] [µM] | apparent KD of MS2 coat protein [2] [µM] | apparent KD of MS2 coat protein [3] [µM] | apparent KD of MS2 coat protein [4] [µM]
UUUUGUCGUGACAUGGGUGACAUGAGGAUCACCCAUGUUACAAGCUUGUUGCUCGUCUUAUAAUUAACCCAUGUCAC [LRO Sensor-off var1-17 mod of Stov1-13-A1 by Brourd] (Eterna round: R97, puzzle: Sensor, turn-off variant 1) | 0.0176 | 0.0161 | – | – | – | –
UCGAAGCUAGGAUAUACAUGAGGAUCACCCAUGUGAGUAAUAACUUGGAGAUACCUCCGUAGAAGGAGCACAAA [Beatdienat] (puzzle: Exclusion 3) | – | – | 0.31 | 0.107 | 0.125 | –
GGGUGACAUGAGGAUCACCCAUGUGAGGAUAUCUGGAUACUCUUUAUUUUAGAUAUCCAGAGAAGGCACACCCU [Ex1-3: 6Z] (puzzle: Exclusion 1) | – | – | – | 0.356 | – | –
ACAUGAGGAUCACCCAUGUCCGGCUGGUCCGUCUCGGCUGUCGAGGAUAUGGCUCGGUGUCCGCGCUAGAAGGUGGGAGCCGGU [Aenatbe mod 74] (Eterna round: R96, puzzle: Exclusion NG 3) | 0.1 | 0.103 | – | – | – | 0.054
GUGUACAGAGGAUAUACACGAAUCUAGCGAAGCUAGGUUUGACAUGAGGAUCACCCAUGUAGAAGGCUGUACAC [Dot plot directed A detuned for Vienna 1] (puzzle: Exclusion 2) | – | – | – | 0.0167 | – | –
AAAGUUCGAGGAUAUCUACUUAGCUACAUGAGGAUCACCCAUGUUAUCCUCCCGCUGGGAAGAGAAGGCGGUUAAA [Xeonceso] (Eterna round: R96, puzzle: Exclusion 5) | 0.138 | 0.0341 | – | – | – | 0.0271
CCUCCCGCCGUCAGGAUAUGCCGUACCGCUGCGCUACAGAAGGCACUUGAGGAUCACCCAAGUACCCGUGAGGC [salish99_bmod_ex4_r4_010] (Eterna round: R97, puzzle: Brourd's mod of Exclusion 4) | 0.0165 | 0.0157 | – | – | – | –
GGGUAGUGAGGAUAUACAUGAGGAUCACCCAUGUUUGCGACACUGGAGGCGUCUCUAUGUAGAAGGCGCGGCCG [EX3 B.16] (Eterna round: R97, puzzle: Exclusion 3) | 0.0304 | 0.0189 | – | – | – | –
GUAUAAUGAGUCAGGAUAUUGAUGACGCUAGGACACAAGAAGGGACAUGAGGAUCACCCAUGUUAUUAUGCGGU [Eternabot (L2) Solution 29] (Eterna round: R97, puzzle: Brourd's mod of Exclusion 4) | 0.0882 | 0.0639 | – | – | – | –
GUACGGUAAGGAUAUUGGAGGCCAAAGCACGAGUAGUACUCUAAGAAGGUACAUGAGGAUCACCCAUGUACGAG [Eternabot (L2) Solution 63] (Eterna round: R97, puzzle: Exclusion 4) | 0.0188 | 0.0169 | – | – | – | –
AGCGAGGCAGGAUAUACAUGAGGAUCACCCAUGUACUUGUAUGGCGUGGAACAUCGUGGUAGAAGGGCCGUGCU [EX3 #81] (Eterna round: R97, puzzle: Exclusion 3) | 0.101 | 0.355 | – | – | – | –
GUCGUGCGGCAGUGCUGUACGAGUACAUGAGGAUCACCCAUGUAGGAUAUGGUUCGUUUUGCGUGCUAGAAGGGCGUGCGUUGG [Excl-NG3-LRO21] (Eterna round: R96, puzzle: Exclusion NG 3) | 0.0193 | 0.0214 | – | – | – | 0.0163
AGAAAGUCAGGAUAUACAUGAGGAUCACCCAUGUAAAGAAAAGAAAGGGAAGGAAGAGGUAGAAGGGACAAGAA [JR_Exclu3_Sub031] (puzzle: Exclusion 3) | – | – | 0.0265 | 0.0227 | 0.023 | –
AAUAACUCAGUGAGGAUAUUUGCGGGUGUUUUCGCAAAGAAGGCACAUGAGGAUCACCCAUGUCAGAGGAGCUA [Eternabot (Original) Solution 24] (Eterna round: R97, puzzle: Brourd's mod of Exclusion 4) | 0.214 | 0.12 | – | – | – | –
GUGUACAGAGGAUAUAUAUGAGCUAGGAAACUAGCAAACUCACAUGAGGAUCACCCAUGUAGAAGGCUGUACAC [Ex2: 722] (Eterna round: R96, puzzle: Exclusion 2) | 0.22 | 0.0269 | – | – | – | 0.0224
UCGGCGCGAGGAUAUACGUUUGCGCUUUUUCGUUUUUGUGUACAUGAGGAUCACCCAUGUAGAAGGCGCGCCGC [Apr-15 SS2-18] (puzzle: Exclusion 2) | – | – | – | 0.0149 | – | –
ACAUGAGGAUCACCCAUGUAAGGUUGGUUUUCUCCGGCUGUUGAGGAUAUAGUCCGGUAUCCGCGCUAGAAGGUGAGGGUUGGC [Aenatbe mod 10] (Eterna round: R96, puzzle: Exclusion NG 3) | 0.073 | 0.0772 | – | – | – | 0.0712

Sequence | apparent KD of MS2 coat protein (input ligand: FMN 200 uM) [µM] | apparent KD of MS2 coat protein (input ligand: none) [µM] | apparent KD of MS2 coat protein [1] [µM] | apparent KD of MS2 coat protein [2] [µM] | apparent KD of MS2 coat protein [3] [µM] | apparent KD of MS2 coat protein [4] [µM]
AACACUGUAGGAUAUCAUGAACUGGACUUGAGGAUCACCCAAGUGUAUCGUGGAGUGCCGUGAGAAGGACGGAUUA [Erleen] (Eterna round: R97, puzzle: Exclusion 5) | 0.0281 | 0.0272 | – | – | – | –
AGUAGGUCUACCUUGGUGGAUCUGCAUUUUUGCAGGUGUACAUGAGGAUCACCCAUGUCCUCAUUUGCUCGUCUUAU [JL turnoff v2 99.30] (puzzle: Sensor v3, turn-off variant 2) | – | – | 0.488 | 0.629 | 0.473 | –
GGUACUAACACGAUAGUGUUAGUACUAUAAGCUUGUGUUACAUGAGGAUCACCCAUGUCCUCAUAAGCUCGUCUUGU [Mat - Sensor v3 - Turn-off var 2 - D89] (puzzle: Sensor v3, turn-off variant 2) | – | – | 0.0498 | 0.0529 | 0.0448 | –
ACUUAUAGAGGAUAUACAGAAUAUUACAUGAGGAUCACCCAUGUUCUUCAAUGUAUAUAUGUAGAAGGCUAAGGUU [Mat - Exclusion 5 - JL Mod - D7] (Eterna round: R97, puzzle: Exclusion 5) | 0.286 | 0.131 | – | – | – | –
UUUAAUUUUUUUUUUUUACAAGCUUUUUGCUCGUCUUAUACAUGAGGAUCACCCAUGUGAAUGGAAGGUAAAUUAUC [JMF 68] (puzzle: Sensor v3, turn-off variant 2) | – | – | 0.0173 | 0.0184 | 0.0204 | –
UUGUUCCGUGUAGGAUAUUGGUCUCCCUCGGGCCGAGAAGGACAUGAGGAUCACCCAUGUAUGCUAUUAUCGCGCGUGGCGCAC [Design 93] (Eterna round: R96, puzzle: Exclusion NG 1) | 0.138 | 0.0473 | – | – | – | 0.0341
AAAGAAACAUGAGGAUCACCCAUGUCUGAUCCAAUGUUUAGUCAGGAUAUGCGUCCGACUUCGGAGCAGAAGGGAUACAGGUAG [Anlaanma] (Eterna round: R96, puzzle: Exclusion NG 3) | 0.125 | 0.356 | – | – | – | 0.357
AACCUGAGGCAAAGCUUUAGGCUUACAUGAGGAUCACCCAUGUAGGAUAUGGUAGGCAAAGCUUACCAGAAGGACAUGGAAAUU [Mat - Exclusion NG 3 - Mod of JL - D24] (Eterna round: R96, puzzle: Exclusion NG 3) | 0.611 | 0.13 | – | – | – | 0.127
UAUUAGCAAGUGAGAUCCCACAUGAGGAUCACCCAUGUGCUCGUCUUAUAACGUACUGUGACGAAAGUCACGGUACG [Sensor-V1 #81] (Eterna round: R97, puzzle: Sensor, turn-off variant 1) | 0.0529 | 0.0472 | – | – | – | –
GGCGUGUCGCGAGGAUAUUCAAACGGACAUGAGGAUCACCCAUGUGAAAGGAAUGUCGAGGUUAUGGAGAAGGCGUUCACGCCG [Qubizace] (Eterna round: R96, puzzle: Exclusion NG 2) | 0.549 | 0.153 | – | – | – | 0.092
CCUCGACAUGAGGAUCACCCAUGUGAGGAUAUGACCUUAAAAGCGUGAGCAGUUUCUAUCAGAAGGCGCGUAGG [salish99_ex1_r4_071] (Eterna round: R97, puzzle: Exclusion 1) | 0.0159 | 0.016 | – | – | – | –
CCGUCCUCAGUUAGGAUAUCUUCCGGAGAACGAAAGGAGAAGGAACAUGAGGAUCACCCAUGUGGCCCGAUGGA [Eternabot (Original) Solution 16] (Eterna round: R97, puzzle: Brourd's mod of Exclusion 4) | 0.0853 | 0.0293 | – | – | – | –
ACAAGCUCUUUGCAACUUAGUUUUGUUGCUUCGUAGGUAACAUGAGGAUCACCCAUGUAAGACUGAUGUCGUCUUAU [JR_SV3TOV2_Sub086] (puzzle: Sensor v3, turn-off variant 2) | – | – | 0.0331 | 0.0214 | 0.0368 | –
AUCAGCUCGUCAGGAUAUACAUGAGGAUCACCCAUGUGGUCAUUAGCAGCUUCGGCUGCAUUAAUGUAGAAGGGACGAGCUGAU [ENG2/8-B2] (Eterna round: R96, puzzle: Exclusion NG 2) | 0.544 | 0.502 | – | – | – | 0.522
UUUUUGUGAGGAUAUGCAAUAUCUUCUAUUUAUUAUUAAUUGCAGAAGGCACAUGAGGAUCACCCAUGUAUUUU [Ex4 - 3 - 36] (puzzle: Exclusion 4) | – | – | – | 0.0205 | – | –
GUAAUUAAUGUAGGAUAUGCAAGGCGAACCUAAGCAGAAGGACAUGUGGAUCACCCAUGUAAACAUGAGGAUCACCCAUGUGCU [salish99_ExNG1_r4_006] (Eterna round: R96, puzzle: Exclusion NG 1) | 1.32 | 4.27 | – | – | – | 1.34

Source: the supplement of paper PMC9170038
